This is an account of results in patent US20220235138A1, “CAR-T CELLS TARGETING IL-1RAP AND THEIR USE IN ACUTE MYELOID LEUKEMIA (AML)” (ETABLISSEMENT FRANCAIS DU SANG, priority 2019, published 2022).

Some results are limits rather than exact numbers.

For test [1], the target named is recombinant IL-1RAP biotinylated protein (UniProt Q9NPH3). The test can be described thus: flow cytometry, biotinylated IL-1RAP (1.25 ng) on CAR-transduced CEM cells, anti-biotin antibody.
For test [2] the target is unchanged. The test can be described thus: flow cytometry, biotinylated IL-1RAP (0.15 ng) on CAR-transduced primary T cells, anti-biotin antibody.
For test [3] the target is unchanged. In words: flow cytometry, serial dilution of biotinylated IL-1RAP on CAR-transduced CEM cells, anti-biotin antibody; single experiment.
Test [4] has the same target. In words: flow cytometry, serial dilution of biotinylated IL-1RAP on CAR-transduced primary T cells, anti-biotin antibody; single experiment.
Test [5] has as its target IL-1RAP expressed at the cell surface of human cells (human), Q9NPH3. The test can be described thus: flow cytometry on monocytes of healthy donors' peripheral blood (2/5) and bone marrow (3/5); RFI against isotype. The note with it: remark: other sources report otherwise.

recombinant IL-1RAP biotinylated protein, sequence (Q9NPH3 21-359 limits assumed): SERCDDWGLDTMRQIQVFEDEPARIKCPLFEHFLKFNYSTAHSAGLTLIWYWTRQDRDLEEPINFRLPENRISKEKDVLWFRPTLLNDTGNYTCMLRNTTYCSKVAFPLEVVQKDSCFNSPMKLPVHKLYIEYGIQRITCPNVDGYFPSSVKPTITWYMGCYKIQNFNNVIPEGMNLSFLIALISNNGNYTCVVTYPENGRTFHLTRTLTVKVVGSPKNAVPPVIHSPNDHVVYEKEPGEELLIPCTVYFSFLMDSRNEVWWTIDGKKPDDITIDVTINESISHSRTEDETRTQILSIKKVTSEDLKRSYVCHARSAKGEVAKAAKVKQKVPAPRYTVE
IL-1RAP expressed at the cell surface of human cells (human), Q9NPH3, sequence (Q9NPH3 21-570): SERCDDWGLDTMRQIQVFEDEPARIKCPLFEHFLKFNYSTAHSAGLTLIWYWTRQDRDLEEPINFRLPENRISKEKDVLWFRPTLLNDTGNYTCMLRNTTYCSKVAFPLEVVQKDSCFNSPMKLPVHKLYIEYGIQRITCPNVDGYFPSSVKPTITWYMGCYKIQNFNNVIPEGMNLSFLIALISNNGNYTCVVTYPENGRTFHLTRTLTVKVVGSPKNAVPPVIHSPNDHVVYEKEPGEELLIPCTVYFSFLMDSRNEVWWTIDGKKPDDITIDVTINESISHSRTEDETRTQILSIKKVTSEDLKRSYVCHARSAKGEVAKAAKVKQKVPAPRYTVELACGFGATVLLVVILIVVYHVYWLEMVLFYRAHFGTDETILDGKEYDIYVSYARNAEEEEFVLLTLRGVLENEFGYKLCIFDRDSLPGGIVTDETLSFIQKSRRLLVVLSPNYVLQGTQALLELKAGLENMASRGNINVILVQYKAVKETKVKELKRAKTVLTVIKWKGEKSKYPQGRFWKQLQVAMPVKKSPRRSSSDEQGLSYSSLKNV

B1: IL-1RAP CAR (scFv of #E3C3 with CD28-4.1BB-CD3z signaling chain) expressed at the surface of transduced CEM or primary T cells (protein, not shown: small tags and cut ends)
scFv: QVQLQQPGAELMMPGASVKVSCEASGYTFTDSWMHWVKQRPGQGLEWIGAIDPSDSYTTYNQKFTGKATLSVDESSNTAYMQLSSLTSEDSAVYYCARYYSGSNYISPFPYWGQGTLVTVSAGGSGGGGSGGGGSVDMESQIQVFVFVFLWLSGVDGDIVMTQSHKFMSTSVGDRVTITCKASLDVSTAVAWYQQKPGQSPKLLIYSASYRYTGVPDRFTGSGSGTDFTFTISSVQAEDLAVYYCQQHYSPPFTFGSGTNLEIK
Consider B1, for which the values for the maximum percentage of Biotin+/CD19+ cells in test [1] and in test [2] were 85.8% and 68.5%, respectively. Also, the amount of recombinant protein required for recruiting maximum of cells in test [3] was found to be 1.25 ng; in test [4], 0.15 ng.

B2: mouse anti-hIL-1RAP monoclonal antibody, clone #E3C3 (antibody, V domains shown)
VH: QVQLQQPGAELMMPGASVKVSCEASGYTFTDSWMHWVKQRPGQGLEWIGAIDPSDSYTTYNQKFTGKATLSVDESSNTAYMQLSSLTSEDSAVYYCARYYSGSNYISPFPYWGQGTLVTVSA
VL: DIVMTQSHKFMSTSVGDRVTITCKASLDVSTAVAWYQQKPGQSPKLLIYSASYRYTGVPDRFTGSGSGTDFTFTISSVQAEDLAVYYCQQHYSPPFTFGSGTNLEIK
In test [5], B2 registered an RFI of under 2.
